{"source": "paper PMC2756985", "about": "(Biochemistry, 2009)", "molecules": {"B1": {"name": "DevS: full length wild-type heme sensor kinase DevS of Mycobacterium tuberculosis (protein, UniProt P9WGK3 1-578, looked up)", "chain": "MTTGGLVDENDGAAMRPLRHTLSQLRLHELLVEVQDRVEQIVEGRDRLDGLVEAMLVVTAGLDLEATLRAIVHSATSLVDARYGAMEVHDRQHRVLHFVYEGIDEETVRRIGHLPKGLGVIGLLIEDPKPLRLDDVSAHPASIGFPPYHPPMRTFLGVPVRVRDESFGTLYLTDKTNGQPFSDDDEVLVQALAAAAGIAVANARLYQQAKARQSWIEATRDIATELLSGTEPATVFRLVAAEALKLTAADAALVAVPVDEDMPAADVGELLVIETVGSAVASIVGRTIPVAGAVLREVFVNGIPRRVDRVDLEGLDELADAGPALLLPLRARGTVAGVVVVLSQGGPGAFTDEQLEMMAAFADQAALAWQLATSQRRMRELDVLTDRDRIARDLHDHVIQRLFAIGLALQGAVPHERNPEVQQRLSDVVDDLQDVIQEIRTTIYDLHGASQGITRLRQRIDAAVAQFADSGLRTSVQFVGPLSVVDSALADQAEAVVREAVSNAVRHAKASTLTVRVKVDDDLCIEVTDNGRGLPDEFTGSGLTNLRQRAEQAGGEFTLASVPGASGTVLRWSAPLSQ", "modifications": "full-length"}}, "experiment": "Oxygen dissociation rates of DevS proteins, stopped flow", "type": "binding, Mycobacterium tuberculosis"}
{"molecule": "B1", "values": [{"measurement": "O2 koff", "result": "6.79 ± 0.33 ^b s^−1"}]}
